B1: Serine/threonine-protein kinase Nek9 (Homo sapiens), Q8TD19 (parent)
chain: MSVLGEYERHCDSINSDFGSESGGCGDSSPGPSASQGPRAGGGAAEQEELHYIPIRVLGRGAFGEATLYRRTEDDSLVVWKEVDLTRLSEKERRDALNEIVILALLQHDNIIAYYNHFMDNTTLLIELEYCNGGNLYDKILRQKDKLFEEEMVVWYLFQIVSAVSCIHKAGILHRDIKTLNIFLTKANLIKLGDYGLAKKLNSEYSMAETLVGTPYYMSPELCQGVKYNFKSDIWAVGCVIFELLTLKRTFDATNPLNLCVKIVQGIRAMEVDSSQYSLELIQMVHSCLDQDPEQRPTADELLDRPLLRKRRREMEEKVTLLNAPTKRPRSSTVTEAPIAVVTSRTSEVYVWGGGKSTPQKLDVIKSGCSARQVCAGNTHFAVVTVEKELYTWVNMQGGTKLHGQLGHGDKASYRQPKHVEKLQGKAIRQVSCGDDFTVCVTDEGQLYAFGSDYYGCMGVDKVAGPEVLEPMQLNFFLSNPVEQVSCGDNHVVVLTRNKEVYSWGCGEYGRLGLDSEEDYYTPQKVDVPKALIIVAVQCGCDGTFLLTQSGKVLACGLNEFNKLGLNQCMSGIINHEAYHEVPYTTSFTLAKQLSFYKIRTIAPGKTHTAAIDERGRLLTFGCNKCGQLGVGNYKKRLGINLLGGPLGGKQVIRVSCGDEFTIAATDDNHIFAWGNGGNGRLAMTPTERPHGSDICTSWPRPIFGSLHHVPDLSCRGWHTILIVEKVLNSKTIRSNSSGLSIGTVFQSSSPGGGGGGGGGEEEDSQQESETPDPSGGFRGTMEADRGMEGLISPTEAMGNSNGASSSCPGWLRKELENAEFIPMPDSPSPLSAAFSESEKDTLPYEELQGLKVASEAPLEHKPQVEASSPRLNPAVTCAGKGTPLTPPACACSSLQVEVERLQGLVLKCLAEQQKLQQENLQIFTQLQKLNKKLEGGQQVGMHSKGTQTAKEEMEMDPKPDLDSDSWCLLGTDSCRPSL

Variants of: B1
Conditions: with plk1_human PLK1, P53350
Sequence of plk1_human PLK1, P53350 (P53350 whole entry): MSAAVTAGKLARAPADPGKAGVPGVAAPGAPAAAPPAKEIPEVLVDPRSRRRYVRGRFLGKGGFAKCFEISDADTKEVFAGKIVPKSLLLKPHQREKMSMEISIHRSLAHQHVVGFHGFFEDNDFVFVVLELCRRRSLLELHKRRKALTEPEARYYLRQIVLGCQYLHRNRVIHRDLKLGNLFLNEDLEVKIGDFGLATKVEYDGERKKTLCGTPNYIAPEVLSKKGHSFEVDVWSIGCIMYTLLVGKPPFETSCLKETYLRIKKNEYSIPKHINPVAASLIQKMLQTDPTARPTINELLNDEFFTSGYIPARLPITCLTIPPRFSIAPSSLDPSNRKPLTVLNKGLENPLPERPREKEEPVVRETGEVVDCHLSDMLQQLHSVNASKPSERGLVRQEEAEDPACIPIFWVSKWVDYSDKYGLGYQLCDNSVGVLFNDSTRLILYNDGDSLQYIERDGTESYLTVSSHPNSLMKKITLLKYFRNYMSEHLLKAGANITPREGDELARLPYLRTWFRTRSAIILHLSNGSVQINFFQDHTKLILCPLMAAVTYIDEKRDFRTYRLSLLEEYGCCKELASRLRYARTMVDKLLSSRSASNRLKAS

Row | Variant | effect of a mutation on the interaction
1 | S869A | disrupting interaction

Variants of: B1
Conditions: with plk1_human PLK1, P53350
Remark: another data set of the same source

Row | Variant | effect of a mutation on the interaction
2 | S750A | decreasing interaction
